Publication doi:10.1101/2024.05.02.592261
Values joined by “and” are separate entries in the source; they are usually repeats but may differ in a detail not shown here. Equal entries are not always repeated.

Target: His-EutM (UniProt P41791)
Experiment: pull-down

Chain of UniProt P41791 (P41791 whole entry): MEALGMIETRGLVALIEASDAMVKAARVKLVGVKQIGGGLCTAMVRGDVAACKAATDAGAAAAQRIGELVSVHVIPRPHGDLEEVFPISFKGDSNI

Substance	molar ratio of His-EutM to dual-modified EutM in the purified hybrid scaffold
SnoopT-EutM-SpyT	3.3 :1 and 7.6 :1
SpyC-EutM-SnoopC	3.9 :1 and 8.8 :1
